Experimental data as given in patent US20200369770A1 (NANJING LEGEND BIOTECH, published 2020).
Blank lines part the entries; values can stand above or below the binder they belong to.

What was measured:
[1] = molecular target: T1, LAG-3 Fc fusion protein having a biotin-label (Homo sapiens (Human), UniProt P18627 29-450, limits assumed, biotin label (site not stated)); experiment: FACS competition, binding of biotinylated LAG-3 Fc to MHC class II on A375 cells blocked; column LAG-3 / Ligand competition (IC50 nM)
T1 construct: not shown: Fc
T1 sequence: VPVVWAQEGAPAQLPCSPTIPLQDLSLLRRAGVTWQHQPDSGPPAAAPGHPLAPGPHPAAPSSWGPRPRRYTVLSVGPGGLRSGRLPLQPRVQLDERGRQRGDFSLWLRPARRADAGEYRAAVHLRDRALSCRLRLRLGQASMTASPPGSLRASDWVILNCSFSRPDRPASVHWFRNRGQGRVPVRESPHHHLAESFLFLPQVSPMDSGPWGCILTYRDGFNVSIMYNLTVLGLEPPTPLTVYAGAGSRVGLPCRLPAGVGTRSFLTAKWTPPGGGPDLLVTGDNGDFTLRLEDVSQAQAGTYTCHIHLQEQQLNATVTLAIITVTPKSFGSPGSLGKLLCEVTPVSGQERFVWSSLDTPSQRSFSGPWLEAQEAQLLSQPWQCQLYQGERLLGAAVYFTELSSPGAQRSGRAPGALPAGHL
Description: (§1) Each mixture was equilibrated for 30 minutes at room temperature, and washed three times with FACS buffer (PBS containing 1% BSA). PE/Cy5 Streptavidin secondary antibody was then added to each mixture and incubated for 15 minutes at room temperature. Subsequently, the cells were washed again with FACS buffer and analyzed by flow cytometry. Data was analyzed with PRISM™ (GraphPad Software, San Diego, Calif.) using non-linear regression, and IC₅₀ values were calculated.

[2] = molecular target: T2, human LAG-3 expressed on CHO cells (human, UniProt P18627 29-525); experiment: FACS on CHO cells expressing human LAG-3; column LAG-3 / Cell binding (EC50 nM)
T2 construct: also called CHO cells expressing human LAG-3
T2 sequence: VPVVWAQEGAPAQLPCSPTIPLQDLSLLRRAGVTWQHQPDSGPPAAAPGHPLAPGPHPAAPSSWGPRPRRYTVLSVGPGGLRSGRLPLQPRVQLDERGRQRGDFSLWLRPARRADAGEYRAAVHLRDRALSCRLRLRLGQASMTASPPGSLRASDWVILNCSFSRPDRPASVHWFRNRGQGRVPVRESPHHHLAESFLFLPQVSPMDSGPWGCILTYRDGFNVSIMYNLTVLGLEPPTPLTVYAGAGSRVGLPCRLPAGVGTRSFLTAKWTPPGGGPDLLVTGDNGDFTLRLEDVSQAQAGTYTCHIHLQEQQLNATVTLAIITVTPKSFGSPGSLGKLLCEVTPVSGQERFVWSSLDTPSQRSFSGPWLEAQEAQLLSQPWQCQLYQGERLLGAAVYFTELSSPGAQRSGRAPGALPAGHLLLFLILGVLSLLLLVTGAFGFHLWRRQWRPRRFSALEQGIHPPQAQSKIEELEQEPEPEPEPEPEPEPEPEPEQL
Description: as §1, with “The” for “Each”, “FITC-conjugated anti-human Fc antibody (Jackson ImmunoResearch) used as” for “PE/Cy5 Streptavidin”, “added” for “added to each mixture”, “Cells” for “Subsequently, the cells”, “EC₅₀” for “IC₅₀”

[3] = molecular target: T3, His-tagged LAG-3 protein (Homo sapiens (Human), UniProt P18627 29-450, limits assumed); experiment: SPR (BIACORE T200), His-tagged LAG-3 as analyte over immobilized binder; column LAG-3 / Affinity (nM)
T3 construct: SPR analyte; not shown: His tag
T3 sequence: T1 sequence
Text: Binding curves at different analyte concentrations were used to calculate the kinetic parameters kₒₙ, koff and Kd (FIGS. 14A-14K).

[4] = molecular target: T4, His-tagged TIGIT protein (Homo sapiens (Human), UniProt Q495A1 22-141); experiment: SPR (BIACORE T200), His-tagged TIGIT as analyte over captured binder; column TIGIT / Affinity (nM)
T4 construct: SPR analyte; not shown: His tag
T4 sequence: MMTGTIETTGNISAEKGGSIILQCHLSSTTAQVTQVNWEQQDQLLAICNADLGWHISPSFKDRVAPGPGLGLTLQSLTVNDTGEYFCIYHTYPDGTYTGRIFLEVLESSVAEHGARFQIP
Text: Binding curves at different analyte concentrations were used to calculate the kinetic parameters kₒₙ, koff and Kd (FIGS. 13A-13K).

[5] = molecular target: T5, human TIGIT expressed on CHO cells (human, UniProt Q495A1 22-244); experiment: FACS competition on CHO cells expressing human TIGIT, blocked ligand biotinylated hCD155 Fc; column TIGIT / Ligand competition (IC50 nM)
T5 construct: also called CHO cells expressing human TIGIT
T5 sequence: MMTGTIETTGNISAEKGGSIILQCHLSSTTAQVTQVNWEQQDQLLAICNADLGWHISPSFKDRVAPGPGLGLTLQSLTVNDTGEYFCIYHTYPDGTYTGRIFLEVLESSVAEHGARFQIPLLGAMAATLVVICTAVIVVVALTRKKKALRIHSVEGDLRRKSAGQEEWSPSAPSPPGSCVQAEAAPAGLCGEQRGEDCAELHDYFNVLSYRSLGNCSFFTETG
Description: as §1

[6] = molecular target: T5, human TIGIT expressed on CHO cells; experiment: FACS on CHO cells expressing human TIGIT; column TIGIT / Cell binding (EC50 nM)
Description: The mixture was equilibrated for 30 minutes at room temperature, and washed three times with FACS buffer (PBS containing 1% BSA). FITC-conjugated anti-human Fc antibody (Jackson ImmunoResearch) used as secondary antibody was then added and the mixture was incubated for 15 minutes at room temperature. Cells were washed again with FACS buffer and analyzed by flow cytometry. Data were analyzed with PRISM™ (GraphPad Software, San Diego, Calif.) using non-linear regression, and EC₅₀ values were calculated.

IC50 [1]: 11 nM | EC50 [2]: 1.82 nM | Kd [3]: 0.45 nM
B1: VHH2 HCAb (antibody, human IgG4 S228P, V domains shown)
VH: EVQLVESGGGLVQPGGSLRLSCAASGYTVSSYCMGWFRQAPGKGREGVSAIDSDGSVSYADSVKGRFTISKDNSKNTLYLQMNSLRAEDTAVYFCAADLCWVDQDQGEYNTWGQGTLVTVSS
notes: positive control for LAG-3; also called anti-LAG-3 VHH2 HCAb

Kd [4]: 0.44 nM | IC50 [5]: 8.61 nM | EC50 [6]: 4.99 nM
B2: AS19584VH28 HCAb (antibody, human IgG4 S228P, V domains shown)
VH: EVQLVESGGGLVQPGGSLRLSCAASGYKYGVYSMGWFRQAPGKGLEGVSAICSGGRTTYSDSVKGRFTISRDNSNQILYLQMNSLRAEDTAVYYCAARPLWTGDCDLSSSWYKTWGQGTLVTVSS
notes: positive control for TIGIT; also called anti-TIGIT AS19584VH28 HCAb
